Biological target: Toll-like Receptor 5 (UniProt O60602)
Experiment: cell-based or functional assay

B1: ngSTF2.HA1-1His(PR8) (protein)
chain: AQVINTNSLSLLTQNNLQKSQSALGTAIERLSSGLRINSAKDDAAGQAIANRFTANIKGLTQASRNANDGISIAQTTEGALNEINNNLQRVRELAVQSAQSTNSQSDLDSIQAEITQRLNEIDRVSGQTQFNGVKVLAQDNTLTIQVGANDGETIDIDLKQINSQTLGLDSLNVQKAYDVKDTAVTTKAYANQGTTLDVSGLDDAAIKAATGGTQGTASVTGGAVKFDADNNKYFVTIGGFTGADAAKNGDYEVNVATDGTVTLAAGATKTTMPAGATTKTEVQELKDTPAVVSADAKNALIAGGVDATDANGAELVKMSYTDKNGKTIEGGYALKAGDKYYAADYDEATGAIKAKTTSYTAADGTTKTAANQLGGVDGKTEVVTIDGKTYQASKAAGHDFKAQPELAEAAAKTTENPLQKIDAALAQVDALRSDLGAVQNRFNSAITNLGNTVNQLSEARSRIEDSDYATEVSQMSRAQILQQAGTSVLAQANQVPQNVLSLLASGSGSGSSHNGKLCRLKGIAPLQLGKCNIAGWLLGNPECDPLLPVRSWSYIVETPNSENGICYPGDFIDYEELREQLSSVSSFERFEIFPKESSWPNHNTNGVTAACSHEGKSSFYRNLLWLTEKEGSYPKLKNSYVNKKGKEVLVLWGIHHPPNSKEQQNLYQNENAYVSVVTSNYNRRFTPEIAERPKVRDQAGRMNYYWTLLKPGDTIIFEANGNLIAPMYAFALSRGFGSGIITSQASMHECNTKCQTPLGAIQSSLPYQNIHPVTIGECPKYVRHHHHHH
With B1 the TLR activity (EC50, ng/ml); IL-8 secretion by HEK293 cells was 30 ng/mL.

Source: patent US20070224205A1
